# Test results: patent publication US20260193323
# T1: LEKTI domains 10-15
# T1 chain: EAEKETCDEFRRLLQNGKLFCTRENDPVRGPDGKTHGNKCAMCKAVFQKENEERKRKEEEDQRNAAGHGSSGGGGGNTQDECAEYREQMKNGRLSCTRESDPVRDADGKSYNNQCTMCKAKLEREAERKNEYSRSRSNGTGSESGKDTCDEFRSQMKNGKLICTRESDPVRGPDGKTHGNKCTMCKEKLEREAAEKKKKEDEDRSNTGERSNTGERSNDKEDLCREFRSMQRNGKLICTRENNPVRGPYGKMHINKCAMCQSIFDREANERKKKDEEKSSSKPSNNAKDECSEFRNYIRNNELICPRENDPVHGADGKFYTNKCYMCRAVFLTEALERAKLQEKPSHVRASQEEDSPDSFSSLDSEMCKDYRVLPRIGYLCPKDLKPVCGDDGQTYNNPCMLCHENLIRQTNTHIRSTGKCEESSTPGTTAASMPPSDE
# T2: recombinantly produced LEKTI Domain 6
# T2 chain: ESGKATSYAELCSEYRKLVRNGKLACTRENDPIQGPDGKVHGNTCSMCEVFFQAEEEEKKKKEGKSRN
# Columns and labels:
# LEKTI domains 10-15 = target: T1, LEKTI domains 10-15
# [1] = target: T2, recombinantly produced LEKTI Domain 6
protein,measurement,setting,value
KLK7 (protein) IIDGAPCARGSHPWQVALLSGNQLHCGGVLVNERWVLTAAHCKMNEYTVHLGSDTLGDRRAQRIKASKSFRHPGYSTQTHVNDLMLVKLNSQARLSSMVKKVRLPSRCEPPGTTCTVSGWGTTTSPDVTFPSDLMCVDVKLISPQDCTKVYKDLLENSMLCAGIPDSKKNACNGDSGGPLVCRGTLQGLVSWGTFPCGQPNDPGVYTQVCKFTKWINDTMKKHR,"KLK7 activity (Suc-Arg-Pro-Tyr-p-Nitro-Anilide substrate, 405 nm)",LEKTI domains 10-15,recombinantly produced LEKTI Domain 6 inhibits KLK7 in vitro about as well as LEKTI domains 10-15
same,"KLK7 activity (Suc-Arg-Pro-Tyr-p-Nitro-Anilide substrate, 405 nm)",[1],recombinantly produced LEKTI Domain 6 inhibits KLK7 in vitro about as well as LEKTI domains 10-15
